Laboratory results reported in PMC10381084.

Key:
[1] = molecular target: Dsh-GFP (Drosophila Dishevelled) (UniProt P51140); assay: co-immunoprecipitation (IP α-Flag, IB α-GFP), western blot quantification; settings: S2 cells, read off a plot
[2] = molecular target: Myc-Pk (Drosophila Prickle) (UniProt A1Z6W3); assay: co-immunoprecipitation (IP α-Flag, IB α-Myc), western blot quantification; settings: S2 cells; 6 independent replicates; parent: est. 18; read off a plot
[3] = 6–7 replicates, parent: est. 12

UniProt P51140, sequence (P51140 whole entry, looked up): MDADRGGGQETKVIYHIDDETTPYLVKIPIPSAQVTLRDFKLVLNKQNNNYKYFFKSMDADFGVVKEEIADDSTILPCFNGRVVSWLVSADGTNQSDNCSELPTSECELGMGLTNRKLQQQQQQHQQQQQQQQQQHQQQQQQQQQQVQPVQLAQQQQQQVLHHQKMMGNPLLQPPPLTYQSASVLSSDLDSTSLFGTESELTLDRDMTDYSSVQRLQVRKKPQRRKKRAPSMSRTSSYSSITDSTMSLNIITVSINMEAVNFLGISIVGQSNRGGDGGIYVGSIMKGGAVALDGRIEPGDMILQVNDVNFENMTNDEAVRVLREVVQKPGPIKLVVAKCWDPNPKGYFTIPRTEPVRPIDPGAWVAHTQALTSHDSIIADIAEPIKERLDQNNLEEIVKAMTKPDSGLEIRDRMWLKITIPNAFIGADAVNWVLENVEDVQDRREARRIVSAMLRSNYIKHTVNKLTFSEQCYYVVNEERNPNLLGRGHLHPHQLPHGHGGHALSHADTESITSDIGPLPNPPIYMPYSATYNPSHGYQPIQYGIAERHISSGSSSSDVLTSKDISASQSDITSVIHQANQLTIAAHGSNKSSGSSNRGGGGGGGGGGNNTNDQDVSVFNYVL
UniProt A1Z6W3, sequence (A1Z6W3 whole entry, looked up): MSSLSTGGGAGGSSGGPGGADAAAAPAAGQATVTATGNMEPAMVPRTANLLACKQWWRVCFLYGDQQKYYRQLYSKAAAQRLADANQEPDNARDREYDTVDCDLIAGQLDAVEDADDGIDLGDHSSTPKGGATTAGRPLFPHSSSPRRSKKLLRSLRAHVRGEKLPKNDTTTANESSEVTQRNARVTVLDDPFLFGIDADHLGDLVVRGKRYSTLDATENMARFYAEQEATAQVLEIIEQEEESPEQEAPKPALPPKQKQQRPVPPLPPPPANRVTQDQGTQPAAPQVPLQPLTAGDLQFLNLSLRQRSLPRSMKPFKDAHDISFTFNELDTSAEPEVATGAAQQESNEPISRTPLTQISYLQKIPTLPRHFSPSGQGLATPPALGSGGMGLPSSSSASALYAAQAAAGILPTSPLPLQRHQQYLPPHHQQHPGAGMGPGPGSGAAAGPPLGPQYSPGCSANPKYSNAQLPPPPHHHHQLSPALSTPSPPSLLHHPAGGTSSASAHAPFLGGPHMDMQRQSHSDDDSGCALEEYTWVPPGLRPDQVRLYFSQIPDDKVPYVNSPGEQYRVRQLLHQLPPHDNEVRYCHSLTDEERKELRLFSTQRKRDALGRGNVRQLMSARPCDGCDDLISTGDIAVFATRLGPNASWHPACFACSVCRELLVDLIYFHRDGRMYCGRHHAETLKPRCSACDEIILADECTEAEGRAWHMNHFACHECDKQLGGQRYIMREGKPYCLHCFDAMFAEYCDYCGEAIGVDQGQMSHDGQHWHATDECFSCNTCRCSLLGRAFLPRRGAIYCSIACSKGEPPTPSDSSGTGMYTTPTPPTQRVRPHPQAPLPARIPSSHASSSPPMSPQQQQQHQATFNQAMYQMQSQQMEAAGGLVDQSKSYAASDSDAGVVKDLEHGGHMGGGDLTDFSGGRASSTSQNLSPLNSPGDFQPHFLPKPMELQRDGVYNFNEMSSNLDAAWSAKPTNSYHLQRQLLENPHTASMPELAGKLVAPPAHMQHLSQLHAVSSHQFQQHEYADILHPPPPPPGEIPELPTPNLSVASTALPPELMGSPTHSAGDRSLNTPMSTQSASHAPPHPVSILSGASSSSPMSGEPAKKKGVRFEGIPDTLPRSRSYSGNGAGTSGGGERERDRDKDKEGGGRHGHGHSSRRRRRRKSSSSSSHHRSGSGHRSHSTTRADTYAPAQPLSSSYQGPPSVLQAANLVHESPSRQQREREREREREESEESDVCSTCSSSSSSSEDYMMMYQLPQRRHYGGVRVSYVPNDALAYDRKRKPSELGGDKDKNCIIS

response ([1]; 6 replicates, parent: est. 9.6) | response [2] | response [1, 3] | Substance
2.5 a.u. | – | – | Vang-Flagx3 (Drosophila Van Gogh, wild type) V376A
– | 1 a.u. | 1.6 a.u. | Vang-Flagx3 (Drosophila Van Gogh, wild type) F371A; K372A; Y374A
– | 2.5 a.u. | 2.5 a.u. | Vang-Flagx3 (Drosophila Van Gogh, wild type) Y374A
